According to the RNAGym collection of RNA variant scans (doi:10.7554/elife.80360):

B1: HDV Ribozyme (parent)
chain: GGCCGGCAUGGUCCCAGCCUCCUCGCUGGCGCCGGCUGGGCAACAUUCCGAGGGGACCGUCCCCUCGGUAAUGGCGAAUGGGACCCA

Variants of: B1
Assay: self-cleavage, relative activity (ratio to wild type); higher = more cleavage; co-transcriptional

First: G34U C41A
Second: G34U C41G
The self-cleavage of the first is higher: 0.133 for the first, 0.0723 for the second.

First: G34C G74C
Second: G34C G74U
The self-cleavage of the first is lower: 0.0875 for the first, 0.136 for the second.

Going from G34C G74A to G34C U37A, the self-cleavage rises from 0.0354 to 0.297.

Compared with G34C U79G, G34C A56U is higher in self-cleavage: 0.0615 for the first, 0.277 for the second.

First: G34A G50U
Second: C33U C49U
The self-cleavage of the first is lower: 0.187 for the first, 1.06 for the second.

Compared with C33G C63G, C33G C63A is lower in self-cleavage: 0.369 for the first, 0.0475 for the second.

First: C33G C63U
Second: G34C A51G
The self-cleavage of the first is lower: 0.173 for the first, 0.346 for the second.

Going from G34C A51C to G34C A51U, the self-cleavage rises from 0.107 to 0.141.

First: C33U A43G
Second: C33U A43U
The self-cleavage of the first is lower: 0.227 for the first, 0.356 for the second.

First: C33U A43C
Second: C33G U65A
The self-cleavage of the first is higher: 0.248 for the first, 0.156 for the second.

Compared with G34A C64U, G34A C64G is lower in self-cleavage: 0.133 for the first, 0.0963 for the second.

First: G34A C64A
Second: G34A G67A
The self-cleavage of the first is higher: 0.128 for the first, 0.104 for the second.

Going from G34A G67C to G34A G67U, the self-cleavage rises from 0.0707 to 0.0811.

First: G34A C84G
Second: G34A C84U
The self-cleavage of the first is lower: 0.104 for the first, 0.142 for the second.

Going from C33G G52A to G34A G39A, the self-cleavage rises from 0.148 to 0.198.

Compared with G34A G76U, G34A G76A is lower in self-cleavage: 0.269 for the first, 0.257 for the second.

Compared with C33G C62G, G34U A42C is lower in self-cleavage: 0.196 for the first, 0.0963 for the second.

Compared with G34U A42U, C33G U60G is lower in self-cleavage: 0.252 for the first, 0.217 for the second.

Compared with G34A A83U, C33U C36G is lower in self-cleavage: 0.0831 for the first, 0.0665 for the second.

Compared with G34C G38C, G34C G38A is lower in self-cleavage: 0.122 for the first, 0.0959 for the second.

First: G34C G38U
Second: C33U C44U
The self-cleavage of the first is lower: 0.0378 for the first, 0.543 for the second.

First: G34U C44G
Second: G34U C44U
The self-cleavage of the first is higher: 0.173 for the first, 0.0241 for the second.

Going from G34A U37G to G34U A77C, the self-cleavage falls from 0.219 to 0.0678.

Going from G34U A77G to G34C C44G, the self-cleavage falls from 0.086 to 0.0332.

Compared with C33G G53U, C33G G53A is lower in self-cleavage: 0.185 for the first, 0.0449 for the second.

Compared with G34C C84A, G34C C84G is higher in self-cleavage: 0 for the first, 0.166 for the second.

Compared with G34C C85U, G34U C62G is lower in self-cleavage: 0.277 for the first, 0.117 for the second.

Going from G34U A56C to C33G G74U, the self-cleavage falls from 0.219 to 0.173.

C33U C85A and C33U C85U are the same in self-cleavage: 0.831 for the first, 0.831 for the second.

Going from G34A C48U to C33U U60G, the self-cleavage rises from 0.132 to 0.935.

First: C33U U60A
Second: C33U A77G
The self-cleavage of the first is higher: 0.696 for the first, 0.554 for the second.

Compared with C33U A77U, G34C G53U is lower in self-cleavage: 0.439 for the first, 0.163 for the second.

First: G34U C84A
Second: G34C G81U
The self-cleavage of the first is higher: 0.176 for the first, 0.0639 for the second.

First: G34A C75G
Second: C33U C41A
The self-cleavage of the first is lower: 0.203 for the first, 0.7 for the second.

Compared with C33U C41U, G34C G68A is lower in self-cleavage: 0.646 for the first, 0.0692 for the second.

Going from G34U A87U to G34U A87C, the self-cleavage falls from 0.141 to 0.119.

Going from G34U A87G to G34C A42G, the self-cleavage falls from 0.122 to 0.0554.

First: G34C A42U
Second: C33U C61U
The self-cleavage of the first is lower: 0.262 for the first, 0.918 for the second.

Going from C33U C61G to C33U U72G, the self-cleavage falls from 0.831 to 0.405.

Compared with G34A C49A, G34A C49U is higher in self-cleavage: 0.0852 for the first, 0.3 for the second.

Compared with C33U G39C, C33U G39U is higher in self-cleavage: 0 for the first, 0.58 for the second.

Going from C33G G54U to C33U A45C, the self-cleavage rises from 0.0426 to 0.494.

Compared with C33U A45G, C33G G80C is lower in self-cleavage: 0.886 for the first, 0 for the second.

Going from C33U G40C to C33U G40A, the self-cleavage rises from 0.286 to 1.06.

First: G34A G40A
Second: G34A G40C
The self-cleavage of the first is higher: 0.181 for the first, 0.0482 for the second.

Going from G34C C64G to G34C C64U, the self-cleavage falls from 0.306 to 0.271.

Going from C33G U37A to C33G U37C, the self-cleavage falls from 0.225 to 0.122.

Going from G34C C66A to G34C C66U, the self-cleavage falls from 0.35 to 0.266.

First: G34A G73C
Second: C33U G80C
The self-cleavage of the first is higher: 0.147 for the first, 0.143 for the second.

Compared with G34C A43U, G34C A43C is higher in self-cleavage: 0 for the first, 0.364 for the second.

Compared with G34A G53U, G34A G53C is higher in self-cleavage: 0.17 for the first, 0.215 for the second.

Compared with G34A U69A, G34A U69G is higher in self-cleavage: 0.166 for the first, 0.306 for the second.

Compared with C33G C84U, C33G C84G is higher in self-cleavage: 0.0386 for the first, 0.0489 for the second.

First: G34C U46C
Second: G34A G54C
The self-cleavage of the first is higher: 0.332 for the first, 0.151 for the second.

Compared with G34A G54U, C33U A42C is higher in self-cleavage: 0.17 for the first, 0.259 for the second.

Compared with C33U A42G, G34A A43C is lower in self-cleavage: 0.427 for the first, 0.119 for the second.

First: G34A A43U
Second: C33G U47A
The self-cleavage of the first is lower: 0 for the first, 0.227 for the second.

First: C33G U47C
Second: C33G C58G
The self-cleavage of the first is higher: 0.317 for the first, 0.185 for the second.

First: G34C U72A
Second: G34C U72G
The self-cleavage of the first is lower: 0.17 for the first, 0.222 for the second.

First: C33U G59A
Second: G34A C44A
The self-cleavage of the first is higher: 0.897 for the first, 0.089 for the second.

Compared with G34C A77G, G34C A77U is lower in self-cleavage: 0.161 for the first, 0.125 for the second.

First: G34C A77C
Second: C33G G40A
The self-cleavage of the first is lower: 0.17 for the first, 0.243 for the second.

Going from C33G G40U to C33G G39U, the self-cleavage falls from 0.233 to 0.0692.

Compared with C33G G39C, G34U C49G is higher in self-cleavage: 0.0386 for the first, 0.166 for the second.

First: G34A C66G
Second: C33G C48U
The self-cleavage of the first is higher: 0.138 for the first, 0.13 for the second.

Going from G34C G59U to G34C G59C, the self-cleavage rises from 0.0415 to 0.0811.

First: C33G G35C
Second: C33G G35U
The self-cleavage of the first is lower: 0.0396 for the first, 0.142 for the second.

Compared with C33G G34C, C33G G34U is higher in self-cleavage: 0 for the first, 0.0997 for the second.

Compared with C33G C57U, C33G C57A is lower in self-cleavage: 0.166 for the first, 0.147 for the second.

First: C33G C57G
Second: G34U C57U
The self-cleavage of the first is higher: 0.214 for the first, 0.174 for the second.

Compared with C33G C75G, C33G C75U is higher in self-cleavage: 0.0426 for the first, 0.151 for the second.

First: C33G C75A
Second: G34U C61U
The self-cleavage of the first is lower: 0.0791 for the first, 0.208 for the second.

Going from G34U C61G to G34A G68A, the self-cleavage falls from 0.378 to 0.144.

Compared with G34A G68U, G34A G68C is lower in self-cleavage: 0.171 for the first, 0.0978 for the second.

Going from G34C U47C to C33U U69C, the self-cleavage rises from 0.185 to 0.956.

Compared with C33U U69G, G34C U60C is lower in self-cleavage: 0.807 for the first, 0.244 for the second.

First: G34C U60G
Second: G34U A45C
The self-cleavage of the first is lower: 0.0978 for the first, 0.117 for the second.

Compared with G34U A45G, C33U G81C is higher in self-cleavage: 0.0652 for the first, 0.119 for the second.

Compared with G34U C36U, G34U C36A is higher in self-cleavage: 0.0482 for the first, 0.106 for the second.

First: G34C C41U
Second: G34C C41A
The self-cleavage of the first is lower: 0.0378 for the first, 0.233 for the second.

First: G34C U69G
Second: G34C U69C
The self-cleavage of the first is higher: 0.703 for the first, 0.249 for the second.

Going from C33U A71U to C33U A71C, the self-cleavage falls from 0.65 to 0.374.

Compared with G34C G35A, G34C G35U is higher in self-cleavage: 0.115 for the first, 0.306 for the second.

In the case of C33G C64A, the self-cleavage is reported as 0.213.
